How the values were obtained:
[1] = target: bacTMEM175 from Chryseobacterium sp (Chryseobacterium sp); assay: cross-linking
[2] = target: bacTMEM175 from Streptomyces collinus (Streptomyces collinus); assay: cross-linking
crystal structure = target: the molecule itself; assay: crystal structure

“bacTMEM175 from Chryseobacterium sp (natural protein)” gave a stoichiometry N [1] of 4.

Work on “bacTMEM175 from Streptomyces collinus (natural protein)” yielded a stoichiometry N [2] of 4.

B1: TMEM175 from Chamaesiphon minutus (CmTMEM175) (natural protein, UniProt K9UJK2 1-203, looked up)
chain: MVEAPEQSETGRIEAFSDGVFAIAITLLVLEIKVPQHKIVETVGLVSSLLSLWPSYLAFLTSFASILVMWVNHHRIFSLVARTDHAFFYWNGLLLMLVTFVPFPTALLAEYLIHPQARVAASVYAGIFLAIAIVFNRLWKHAATADRLLAQKADRHEVDAITKQYRFGPGLYLVAFALSFISVWLSVGVCFVLAIYFALRSNA
With B1 the “stoichiometry N” value (crystal structure) was 4.

From publication PMC5901963 (Nature, 2017)
